This note sets out measurements from US20160207960A1 (FEINSTEIN INSTITUTE FOR MEDICAL RESEARCH, published 2016).

B1: rhMD2 (Accession #BAA78717; Glu17-Asn160) with 10-His tag at the C-terminus (receptor, human)
chain: EAQKQYWVCNSSDASISYTYCDKMQYPISINVNPCIELKRSKGLLHIFYIPRRDLKQLYFNLYITVNTMNLPKRKEVICRGSDDDYSFCRALKGETVNTTISFSFKGIKFSKGKYKCVVEAISGSPEEMLFCLEFVILHQPNSNHHHHHHHHHH
notes: range 17-160; From R&D Systems, expressed in E. coli; also called TLR4 co-receptor MD2
B2: Recombinant human (rh) CIRP (Accession #NP_001271; full length) with C-terminal DDK tag (ligand)
chain: MASDEGKLFVGGLSFDTNEQSLEQVFSKYGQISEVVVVKDRETQRSRGFGFVTFENIDDAKDAMMAMNGKSVDGRQIRVDQAGKSSDNRSRGYRGGSAGGRGFFRGGRGRGRGFSRGGGDRGYGGNRFESRSGGYGGSRDYYSSRSQSGGYSDRSSGGSYRDSYDSYATHNE
notes: Bought from Origene, expressed in HEK293 cells; also called recombinant human CIRP; human CIRP; not shown: C-terminal DDK tag

Experiment [1] deals with B1. The experiment is described as follows: SPR, 15-mer oligopeptide as analyte over immobilized rhMD2. On the procedure:
(§1) Analysis of protein-protein and peptide-protein interactions were conducted using the BIAcore T200 instrument (GE Healthcare). Binding reactions were performed in 1×PBS buffer containing 0.01% Tween-20 (pH 7.4). The CM5 dextran chip (flow cell-2) was first activated by injection with 89 μl of 0.1 M […] and 0.1 M N-hydroxysuccinimide. An aliquot of 200 μl of 5 μg/ml of the ligand diluted in 10 mM sodium acetate (pH 4.5) was injected into flow cell-2 of the CM5 chip for immobilization. Next, 135 μl of 1 M ethanolamine (pH 8.2) was then injected to block the remaining active sites. The flow cell-1 without coating with the ligand was used as a control to evaluate nonspecific binding. The binding analyses were performed at flow rate of 30 μl/min at 25° C. […] The signal from the blank channel (flow cell-1) was subtracted from the channel (flow-cell 2) coated with the ligand. Data were analyzed by the BIAcore T200 Evaluation Software. For all samples, a blank injection with buffer alone was subtracted from the resulting reaction surface data. Data were globally fitted to the Lagmuir model for a 1:1 binding.
(§2) Surface plasmon resonance (SPR) analysis was utilized to determine the physical interaction and binding affinity between rhCIRP and pattern-recognition receptors and MD2.

Experiment [2] concerns the target B2. The experiment is described as follows: SPR, BIAcore T200, kinetic analysis, 1:1 Langmuir fit; target rhMD2. The protocol: as §1, §2
In general terms: In SPR one partner is held on a chip, and binding of the other changes the refractive index at the surface.

Experiment [3] concerns the target T1, rhTLR4 (Accession #O00206; Glu24-Lys631) with 10-His tag at the C-terminus (human, UniProt O00206 24-631).
T1 construct: range 24-631; From R&D Systems, expressed in mouse myeloma NS0 cells
The experiment is described as follows: SPR, BIAcore T200, positive control; rhMD2 to rhTLR4, positive control. On the procedure: as §1, §2

The target in experiment [4] is T1, rhTLR4 (Accession #O00206; …). Kind of experiment: SPR, BIAcore T200, kinetic analysis, 1:1 Langmuir fit; target rhTLR4. On the procedure:
as §1, §2

For experiment [5], the target named is T2, rhTLR4/MD2 complex (rhTLR4 Glu24-Lys631 co-expressed with rhMD2 Glu17-Asn160, His tag at each protein) (human, UniProt O00206 24-631; Q9Y6Y9 17-160).
T2 construct: range 24-631;range 17-160; Purified from NS0 cells co-expressing both proteins; R&D Systems; not shown: His tag; for the complex only 'His tag at each protein' is said (a general sentence gives a C-terminal 10-His tag for rh)
The experiment is described as follows: SPR, BIAcore T200, kinetic analysis, 1:1 Langmuir fit; target rhTLR4/MD2 complex. On the procedure: as §1, §2

For experiment [6], the target named is T3, rhRAGE (Accession #Q15109; Ala23-Ala344) with C-terminal 6-His tag (human, UniProt Q15109 23-344).
T3 construct: range 23-344; From Biovision, expressed in HEK293 cells
The experiment is described as follows: SPR (BIAcore T200), analyte rhRAGE over immobilized rhCIRP; apparent KD from kinetic analysis. The protocol: as §1, §2

For experiment [7], the target named is T4, rhTLR2 (Accession #NP_003255; Glu21-Leu590) with 10-His tag at the C-terminus (human, UniProt O60603 21-590).
T4 construct: range 21-590; From R&D Systems, expressed in mouse myeloma NS0 cells
Kind of experiment: SPR (BIAcore T200), analyte rhTLR2 over immobilized rhCIRP; apparent KD from kinetic analysis. On the procedure: as §1, §2

T1 sequence (O00206 other isoform, or with tags, fused parts or gaps limits assumed): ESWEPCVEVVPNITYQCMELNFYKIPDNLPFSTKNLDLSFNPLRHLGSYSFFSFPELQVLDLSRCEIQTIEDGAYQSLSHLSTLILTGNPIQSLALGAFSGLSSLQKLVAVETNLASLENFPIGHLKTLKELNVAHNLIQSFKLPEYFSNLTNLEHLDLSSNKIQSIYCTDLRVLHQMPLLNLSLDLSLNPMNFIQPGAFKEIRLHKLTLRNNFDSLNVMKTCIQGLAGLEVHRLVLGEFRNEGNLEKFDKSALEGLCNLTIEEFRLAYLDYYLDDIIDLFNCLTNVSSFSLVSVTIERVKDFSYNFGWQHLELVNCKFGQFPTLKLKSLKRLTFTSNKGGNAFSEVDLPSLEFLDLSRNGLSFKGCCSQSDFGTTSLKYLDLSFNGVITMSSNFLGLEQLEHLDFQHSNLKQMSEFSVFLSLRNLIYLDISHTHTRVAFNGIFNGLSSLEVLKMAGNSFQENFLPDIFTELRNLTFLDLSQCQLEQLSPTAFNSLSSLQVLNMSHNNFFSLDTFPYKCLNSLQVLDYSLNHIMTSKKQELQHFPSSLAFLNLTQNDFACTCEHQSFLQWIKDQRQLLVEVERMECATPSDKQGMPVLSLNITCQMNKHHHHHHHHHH
T3 sequence (Q15109 other isoform, or with tags, fused parts or gaps limits assumed): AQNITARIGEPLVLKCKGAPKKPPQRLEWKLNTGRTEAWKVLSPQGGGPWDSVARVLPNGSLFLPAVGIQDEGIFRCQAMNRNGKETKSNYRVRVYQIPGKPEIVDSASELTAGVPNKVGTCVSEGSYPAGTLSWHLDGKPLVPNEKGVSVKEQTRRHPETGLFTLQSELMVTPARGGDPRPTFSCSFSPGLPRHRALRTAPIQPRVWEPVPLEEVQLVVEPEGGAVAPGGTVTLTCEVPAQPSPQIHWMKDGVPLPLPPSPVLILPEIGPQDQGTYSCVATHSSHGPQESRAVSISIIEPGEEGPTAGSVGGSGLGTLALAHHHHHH
T2 sequence (O00206 24-631 limits assumed, form in doubt, one chain of several): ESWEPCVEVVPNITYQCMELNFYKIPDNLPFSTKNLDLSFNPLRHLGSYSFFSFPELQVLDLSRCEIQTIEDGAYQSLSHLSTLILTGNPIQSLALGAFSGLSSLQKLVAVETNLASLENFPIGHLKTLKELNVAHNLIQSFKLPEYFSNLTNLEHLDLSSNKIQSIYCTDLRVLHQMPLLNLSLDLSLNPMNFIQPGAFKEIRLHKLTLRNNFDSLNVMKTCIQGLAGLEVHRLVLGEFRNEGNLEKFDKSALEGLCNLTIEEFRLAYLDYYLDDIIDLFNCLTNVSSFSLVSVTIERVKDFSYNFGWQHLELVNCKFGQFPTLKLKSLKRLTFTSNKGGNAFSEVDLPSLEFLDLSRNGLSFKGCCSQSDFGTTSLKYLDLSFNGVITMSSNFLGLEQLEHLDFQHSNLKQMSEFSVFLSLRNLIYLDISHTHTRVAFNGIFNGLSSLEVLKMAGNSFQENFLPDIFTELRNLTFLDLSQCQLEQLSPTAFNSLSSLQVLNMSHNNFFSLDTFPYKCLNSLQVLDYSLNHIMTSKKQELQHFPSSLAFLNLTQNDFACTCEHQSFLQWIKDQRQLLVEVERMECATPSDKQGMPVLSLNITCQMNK
T4 sequence (O60603 other isoform, or with tags, fused parts or gaps limits assumed): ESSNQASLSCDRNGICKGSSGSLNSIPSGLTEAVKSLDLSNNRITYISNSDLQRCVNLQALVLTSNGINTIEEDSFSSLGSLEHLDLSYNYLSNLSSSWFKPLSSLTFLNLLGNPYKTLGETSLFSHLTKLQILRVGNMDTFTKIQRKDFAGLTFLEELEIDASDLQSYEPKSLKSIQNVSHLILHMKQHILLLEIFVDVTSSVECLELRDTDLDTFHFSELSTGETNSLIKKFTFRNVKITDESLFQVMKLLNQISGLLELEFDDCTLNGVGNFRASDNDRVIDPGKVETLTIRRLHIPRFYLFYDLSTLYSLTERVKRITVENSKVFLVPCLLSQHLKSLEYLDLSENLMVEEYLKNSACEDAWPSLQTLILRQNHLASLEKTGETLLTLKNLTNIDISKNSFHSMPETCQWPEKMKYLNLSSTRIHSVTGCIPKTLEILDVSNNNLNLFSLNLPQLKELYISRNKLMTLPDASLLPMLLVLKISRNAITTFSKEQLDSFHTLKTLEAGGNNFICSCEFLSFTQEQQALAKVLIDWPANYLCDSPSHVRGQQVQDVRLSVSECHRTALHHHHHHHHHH

On to GRGFSRGGGDRGYGG [CIRP-derived oligopeptide C23 (human CIRP aa 111-125)], for which the Kd in experiment [1] amounted to 29.7 nM.

Molecule RGFFRGGRGRGRGFS [human CIRP 15-mer oligopeptide aa 101-115] yielded a Kd in experiment [1] of 1510 nM.

Take GGRGRGRGFSRGGGD (Synthetic, Genscript) [CIRP-derived oligopeptide C22 (human CIRP aa 106-120)]: in experiment [1], the Kd was 129 nM.

As to B1, the values for the Kd in experiment [2] and in experiment [3] were 302 nM and 53.7 nM, respectively.

For the molecule B2, the Kd in experiment [4] is 617 nM; in experiment [5], 239 nM; in experiment [6], 33.1 nM; in experiment [7], 258 nM.
